# Reference: publication PMC4919504
# Columns and labels:
# Assay in all cases: anti-GFP IP, LC-MS/MS spectral counts
# Numa1 = Numa1 (UniProt Q14980); settings: sites S1448
# Vimentin = Vimentin (UniProt P08670); settings: reference: S1448A GFP-Scribble; sites S1448
# Beta-pix = Beta-pix (UniProt Q14155); settings: reference: S1448A GFP-Scribble; sites S1448
# Git1 = Git1 (UniProt Q9Y2X7); settings: reference: S1448A GFP-Scribble; sites S1448
# [1] = reference: wild type GFP-Scribble
Substance,other: spectral counts (Numa1; [1]),other: spectral counts (Numa1; reference: S1448A GFP-Scribble),other: spectral counts (Vimentin),other: spectral counts (Beta-pix),other: spectral counts (Git1)
Scribble (from UniProt Q14160) S1448A GFP-Scribble,weaker; reference 34,–,–,–,–
Scribble (from UniProt Q14160) S1448D GFP-Scribble,same; reference 34,stronger; reference 8,same; reference 277,same; reference 49,same; reference 72
